± gives the uncertainty stated by the source.
Assay: self-splicing fitness, log relative to wild type (ln ratio); higher = more splicing; Tetrahymena group I intron in knt gene, E. coli kanamycin selection, DiMSum; sequences stand for … in CUCUCU…GGAGGGAAAAGUUAUCAGGCAUGCACCUGGUAGCUAGUCUUUAAACCAAUAGAUUGCAUCGGUUUAAAAGGCAAGACCGUCAAAUUGCGGGAAAGGGGUCAACAGCCGUUCAGUACCAAGUCUCAGGGGAAACUUUGAGAUGGCCUUGCAAAGGGUAUGGUAAUAAGCUGACGGACAUGGUCCUAACCACGCAGCCAAGUCCUAAGUCAACAGAUCUUCUGUUGAUAUGGAUGCAGUUCACAGACUAAAUGUCGGUCGGGGAAGAUGUAUUCUUCUCAUAAGAUAUAGUCGGACCUCUCCUUAAUGGGAGCUAGCGGAUGAAGUGAUGCAACACUGGAGCCGCUGGGAACUAAUUUGUAUGCGAAAGUAUAUUGAUUAGUUUUGGAGUACUCGUGGUCG
Outline: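 The eight P1ex-region nucleotides of an intron in the knt kanamycin-resistance gene on pET-22b(+) were all randomised and the library put into E. coli BL21(DE3). Six replicate transformations were grown overnight at 37°C or 30°C on LB agar with or without 25 μg/mL kanamycin, together with 100 μg/mL carbenicillin, 50 μM IPTG and 0.2% rhamnose. Colonies were pooled and amplicon-sequenced on an Illumina HiSeq 2500. Fitness from DiMSum is the error-weighted combination of wild-type-normalised replicate fold changes, kanamycin over none.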

| Sequence | self-splicing fitness (ln) (30 °C) | self-splicing fitness (ln) (37 °C) |
| --- | --- | --- |
| AAAUAGCAAUAUUACGAAAC | -3.4 ± 0.27 | -1.76 ± 0.18 |
| AGUAAGCAAUAUUACGGAGC | -2.93 ± 0.37 |  |
| CGUCAGCAAUAUUACGAGCA | -0.74 ± 0.14 | -0.627 ± 0.14 |
| GUCCAGCAAUAUUACGUCGA | -0.796 ± 0.2 | -0.589 ± 0.19 |
| AGGAAGCAAUAUUACGCCGU | -1.28 ± 0.24 | -0.629 ± 0.33 |
| CAAUAGCAAUAUUACGCCAA | -2.96 ± 0.22 | -2.76 ± 0.2 |
| UUAGAGCAAUAUUACGGAGU | -4.12 ± 0.39 | -2.9 ± 0.32 |
| UGGAAGCAAUAUUACGGGGG | -2.52 ± 0.32 | -2.89 ± 0.49 |
| CAUGAGCAAUAUUACGAAUG | -3.67 ± 0.2 | -2.33 ± 0.16 |
| GUGAAGCAAUAUUACGUUUU | -4.1 ± 0.14 | -3.88 ± 0.22 |
| CUAGAGCAAUAUUACGUACG | -0.818 ± 0.082 | 0.268 ± 0.12 |
| AUAAAGCAAUAUUACGCAUG | -0.888 ± 0.073 | -0.405 ± 0.093 |
| UAUUAGCAAUAUUACGCUCU | -1.02 ± 0.17 | -0.332 ± 0.32 |
| UAUAAGCAAUAUUACGGAGA | -3.11 ± 0.36 | -2.33 ± 0.46 |
| CAUGAGCAAUAUUACGAUUG | -4.17 ± 0.26 | -3.15 ± 0.24 |
| CCGGAGCAAUAUUACGGCUC |  | -2.08 ± 0.37 |
| CGCCAGCAAUAUUACGGAAC | -2.64 ± 0.23 | -1.52 ± 0.24 |
| AGCCAGCAAUAUUACGCGUA | -1.99 ± 0.13 | -1.44 ± 0.14 |
| CUGUAGCAAUAUUACGACAU | -1.528 ± 0.014 | -0.616 ± 0.033 |
| CUGCAGCAAUAUUACGAUUG | -0.725 ± 0.06 | -0.488 ± 0.074 |
| CUUCAGCAAUAUUACGUAGA | -3.3 ± 0.19 | -2.92 ± 0.27 |
| CUUAAGCAAUAUUACGAAGC | -3.09 ± 0.36 | -2.17 ± 0.31 |
| CUAGAGCAAUAUUACGCACG | -0.957 ± 0.15 | -0.23 ± 0.24 |
| CUACAGCAAUAUUACGGAGA | -4.39 ± 0.42 | -2.27 ± 0.27 |
| UUCGAGCAAUAUUACGAAUA |  | -1.26 ± 0.3 |

| Sequence | self-splicing fitness (ln) (30 °C) | self-splicing fitness (ln) (37 °C) |
| --- | --- | --- |
| GUUAAGCAAUAUUACGGCUU | -1.22 ± 0.11 | -0.546 ± 0.14 |
| CUUAAGCAAUAUUACGACCG | 0.42 ± 0.14 | -0.4 ± 0.16 |
| CAAAAGCAAUAUUACGGCUG | -1.3 ± 0.088 | -0.592 ± 0.11 |
| AGGCAGCAAUAUUACGACUU | -0.0645 ± 0.048 | 0.187 ± 0.065 |
| CCUAAGCAAUAUUACGUCCU | -3.74 ± 0.33 | -2.04 ± 0.24 |
| UCCCAGCAAUAUUACGUAUU | -2.91 ± 0.2 | -3.28 ± 0.28 |
| UGACAGCAAUAUUACGGACC | -0.664 ± 0.12 | -0.748 ± 0.21 |
| ACAAAGCAAUAUUACGUAUG | -3.01 ± 0.12 | -2.13 ± 0.15 |
| GGACAGCAAUAUUACGUCUU | -3.29 ± 0.091 | -1.9 ± 0.099 |
| UCAUAGCAAUAUUACGGGCC |  | -3.67 ± 0.46 |
| CGAGAGCAAUAUUACGUAGA | -1.62 ± 0.2 | -1.68 ± 0.3 |
| AUGGAGCAAUAUUACGCCUU | -2.22 ± 0.18 | -2.41 ± 0.3 |
| CAAGAGCAAUAUUACGCACC | -3.75 ± 0.35 |  |
| GUGGAGCAAUAUUACGCGAG |  | -1.53 ± 0.38 |
| GCAUAGCAAUAUUACGCGAG | -2.42 ± 0.23 | -1.72 ± 0.17 |
| UCCAAGCAAUAUUACGACUC | -3.4 ± 0.29 | -2.62 ± 0.24 |
| CACAAGCAAUAUUACGUCGC | -3.09 ± 0.11 | -2.41 ± 0.17 |
| GCGCAGCAAUAUUACGUUCC | -0.792 ± 0.096 | -0.406 ± 0.13 |
| GAUCAGCAAUAUUACGUUCC |  | -2.85 ± 0.4 |
| CGAGAGCAAUAUUACGCCUA | -2.4 ± 0.36 | -0.235 ± 0.38 |
| AACGAGCAAUAUUACGUGGC | -3.85 ± 0.3 | -2.94 ± 0.27 |
| UUUGAGCAAUAUUACGAAAG |  | -2.49 ± 0.23 |
| CACCAGCAAUAUUACGAGGC | -2.98 ± 0.17 | -2.46 ± 0.19 |
| AGGUAGCAAUAUUACGUCAG | -2.334 ± 0.019 | -1.42 ± 0.035 |
| CGUAAGCAAUAUUACGGUUG | -0.897 ± 0.061 | -0.159 ± 0.078 |

| Sequence | self-splicing fitness (ln) (30 °C) | self-splicing fitness (ln) (37 °C) |
| --- | --- | --- |
| UGAAAGCAAUAUUACGGGCG | -0.0565 ± 0.085 | 0.348 ± 0.11 |
| CUCUAGCAAUAUUACGUUCA | -3.66 ± 0.34 | -3.02 ± 0.27 |
| UGCUAGCAAUAUUACGGGAC | -2.52 ± 0.2 | -1.92 ± 0.18 |
| UGAUAGCAAUAUUACGCGGA | -2.4 ± 0.48 | -0.465 ± 0.29 |
| AAAUAGCAAUAUUACGGACA | -1.08 ± 0.12 | -0.512 ± 0.13 |
| CUGUAGCAAUAUUACGAUUC | -3.71 ± 0.23 | -3.19 ± 0.4 |
| AGGUAGCAAUAUUACGCUGA | -2.032 ± 0.019 | -1.14 ± 0.034 |
| GGUGAGCAAUAUUACGCGUU | -2.61 ± 0.15 | -0.173 ± 0.16 |
| GACAAGCAAUAUUACGCGCC | -2.58 ± 0.18 | -1.08 ± 0.21 |
| CAAAAGCAAUAUUACGUGGU | -3.65 ± 0.11 | -2.49 ± 0.11 |
| CGACAGCAAUAUUACGAAAG | -1.22 ± 0.13 | -0.409 ± 0.17 |
| CUCGAGCAAUAUUACGUGGA | -2.89 ± 0.27 | -1.88 ± 0.16 |
| GCGCAGCAAUAUUACGGAGC | -2.35 ± 0.26 | -2.38 ± 0.49 |
| GGCUAGCAAUAUUACGGGUU | -1.9 ± 0.096 | -0.879 ± 0.09 |
| GUUGAGCAAUAUUACGGCUU | -2.84 ± 0.28 | -1.25 ± 0.37 |
| AAAAAGCAAUAUUACGUGAC | -2.84 ± 0.14 | -2.31 ± 0.17 |
| GGCGAGCAAUAUUACGUACG | -2.43 ± 0.18 | -1.35 ± 0.22 |
| ACGUAGCAAUAUUACGAUCU | -0.0721 ± 0.051 | 0.356 ± 0.065 |
| GCUGAGCAAUAUUACGGUUG | -3.64 ± 0.31 | -2.67 ± 0.35 |
| UUACAGCAAUAUUACGUCCG | -1.53 ± 0.089 | -0.482 ± 0.14 |
| CGUGAGCAAUAUUACGAUCC | -2.65 ± 0.25 | -0.358 ± 0.25 |
| CCAAAGCAAUAUUACGGUGU | -3.74 ± 0.19 | -2.97 ± 0.15 |
| UGCUAGCAAUAUUACGACUU | -0.801 ± 0.2 | -0.152 ± 0.17 |
| ACCUAGCAAUAUUACGAGGU | -3.09 ± 0.17 | -2.43 ± 0.17 |
| AACAAGCAAUAUUACGCUCA | -0.608 ± 0.054 | -0.27 ± 0.071 |

| Sequence | self-splicing fitness (ln) (30 °C) | self-splicing fitness (ln) (37 °C) |
| --- | --- | --- |
| AUCUAGCAAUAUUACGUUGC | -3.28 ± 0.28 | -3.03 ± 0.37 |
| AUCAAGCAAUAUUACGCUAC |  | -0.41 ± 0.33 |
| GCGUAGCAAUAUUACGAAAA | -2.22 ± 0.41 | -1.48 ± 0.25 |
| ACACAGCAAUAUUACGAUAG | -2.96 ± 0.074 | -1.62 ± 0.069 |
| CGUGAGCAAUAUUACGACCA |  | -0.768 ± 0.24 |
| CUUCAGCAAUAUUACGAAAU | -2.2 ± 0.31 | -2.4 ± 0.5 |
| GCGGAGCAAUAUUACGUACC | -3.69 ± 0.36 | -0.124 ± 0.43 |
| CACGAGCAAUAUUACGAAUC | -3.87 ± 0.35 | -2.93 ± 0.25 |
| ACUUAGCAAUAUUACGCGUC | -3.62 ± 0.25 | -1.83 ± 0.26 |
| GUACAGCAAUAUUACGGAAG | -1.45 ± 0.11 | -3.01 ± 0.25 |
| UCCAAGCAAUAUUACGGUAG | -4.7 ± 0.41 | -2.21 ± 0.16 |
| AACUAGCAAUAUUACGCUGC | -2.59 ± 0.14 | -2.29 ± 0.18 |
| GAGUAGCAAUAUUACGCUUU | -3.16 ± 0.32 | -1.39 ± 0.23 |
| GCGUAGCAAUAUUACGCUUC |  | -0.836 ± 0.35 |
| GGCGAGCAAUAUUACGUCAG | -2.33 ± 0.31 | -3.08 ± 0.4 |
| GCCCAGCAAUAUUACGGUGA | -0.302 ± 0.045 | 0.206 ± 0.056 |
| CCUCAGCAAUAUUACGGAUU | -4.3 ± 0.39 | -2.56 ± 0.22 |
| AACGAGCAAUAUUACGGACG | -2.19 ± 0.2 | -1.05 ± 0.23 |
| UCGGAGCAAUAUUACGAAUG | -4.16 ± 0.36 | -2.15 ± 0.27 |
| ACGUAGCAAUAUUACGUCAU | -2.12 ± 0.17 | -2.4 ± 0.3 |
| ACAAAGCAAUAUUACGACGU | 0.0672 ± 0.047 | 0.266 ± 0.06 |
| GGCAAGCAAUAUUACGACAC | -0.649 ± 0.15 | 0.129 ± 0.28 |
| AAGUAGCAAUAUUACGUAGU | -3.59 ± 0.19 | -2.32 ± 0.21 |

From the supplement of paper PMC7877785
